The RNAGym collection of RNA variant scans (doi:10.7554/elife.90254)

B1: LINE1-mini (parent)
chain: GGCAGAGCUCAACACAGCGUGGCAAAGUGGCUGUGGCUAGACUGCC

Variants of: B1
Assay: self-cleavage, relative activity (ratio to wild type); higher = more cleavage; in vitro, sequencing; the parent is a self-cleaving ribozyme

Row | Variant | self-cleavage
1 | GGCAGAGCUCAACACAGCGUCGCAAAGUGGCUGUGGCUCGACUGCC [G21C A39C] | 0.07
2 | GGCAGAGCUCAACAAAGCGUGACAAAGUGGCUGUGGCUAGACUGCC [C15A G22A] | 0.28
3 | GGCAGAGCUCGACACGGCGUGGCAAAGUGGCUGUGGCUAGACUGCC [A11G A16G] | 0.02
4 | GGCAGAGCUCAACACAGCAUGGCAAAUUGGCUGUGGCUAGACUGCC [G19A G27U] | 0.93
5 | GGCAGAGCUCAACACAGCGUGGCAUAGUGGCUGUGGGUAGACUGCC [A25U C37G] | 0.02
6 | GGCAGAGCCCAACACAGCGUGGCAAAGUGGCUGUGGCCAGACUGCC [U9C U38C] | 0.07
7 | GGCAAAUCUCAACACAGCGUGGCAAAGUGGCUGUGGCUAGACUGCC [G5A G7U] | 0.26
8 | GGCAGAGCUCAACACAGCGUGGCAAAGUUGCUGUGGCUAGAAUGCC [G29U C42A] | 0.14
9 | GGCAGAGCUCAACACAGCGUGGCAAUGGGGCUGUGGCUAGACUGCC [A26U U28G] | 1.74
10 | GGCAGAGCUAAACACAGCGUGGCAAAGUGGCUAUGGCUAGACUGCC [C10A G33A] | 0.04
11 | GGCAGAGCUCAACACAGCGUGGCAGAGUGGCUGUGCCUAGACUGCC [A25G G36C] | 0.04
12 | GGCAGAGCUCAACACAGCGUGGCAAAGUGACUGUGACUAGACUGCC [G30A G36A] | 0.43
13 | GGCAGAGCUCAACACAGCGUGGCAAAGUGGCUGUGGGUCGACUGCC [C37G A39C] | 0.06
14 | GGCAGAGCUCAACGCAGCGUGGCAAAGUUGCUGUGGCUAGACUGCC [A14G G29U] | 0.29
15 | GGCAGAGCUCAACACAGCGUGGCAAAGUCGCUGUGGCUAUACUGCC [G29C G40U] | 0.07
16 | GGCACAGCUCAAUACAGCGUGGCAAAGUGGCUGUGGCUAGACUGCC [G5C C13U] | 0.05
17 | GGCAGAGCUCAUGACAGCGUGGCAAAGUGGCUGUGGCUAGACUGCC [A12U C13G] | 0.48
18 | GGCAGAGCUCCACACAGCGUGGCAAAGUCGCUGUGGCUAGACUGCC [A11C G29C] | 0.05
19 | GGCAGAGCUCAACACAGCGUGGCAAAUUGGCUGUGGCUAGACUGUC [G27U C45U] | 1.6

Row | Variant | self-cleavage
20 | GGCAGAGCUCAACUCAGCGUGGCAAAGUGGCUGUGGCGAGACUGCC [A14U U38G] | 0.06
21 | GCCAGAGCUCAACACAUCGUGGCAAAGUGGCUGUGGCUAGACUGCC [G2C G17U] | 0.06
22 | GGCAGAGCUCAGCACAGCGUGGCAAAGUGGCUGUGGCUAGACUUCC [A12G G44U] | 0.09
23 | GGCAGAGCUCGACACAGCGUGGCAAAGUGCCUGUGGCUAGACUGCC [A11G G30C] | 0.04
24 | GGCAGAGCUCAACACAUCGUGGCAAAGUGGCUGUGGCUAGACUGUC [G17U C45U] | 0.18
25 | GGCAGACCCCAACACAGCGUGGCAAAGUGGCUGUGGCUAGACUGCC [G7C U9C] | 0.03
26 | GGCAGAGCUCAACAGAGCGUGGCAAAGUGGCUGUGGCUAUACUGCC [C15G G40U] | 0.09
27 | GGCAGAGCUCAACACAACGUGUCAAAGUGGCUGUGGCUAGACUGCC [G17A G22U] | 0.54
28 | GGCAGAGCUCCACACAGCGUGCCAAAGUGGCUGUGGCUAGACUGCC [A11C G22C] | 0.04
29 | GGCAGAGCUCAACACAUCGUGGUAAAGUGGCUGUGGCUAGACUGCC [G17U C23U] | 0.18
30 | GGCAGAGCUCAGCACAGCGUGGCAAAGUGUCUGUGGCUAGACUGCC [A12G G30U] | 0.04
31 | GGCAGAGCUGAACACAGCGUGGCAAAGUGGCUGUGGCUAGAGUGCC [C10G C42G] | 0.03
32 | GGCAGAGCUCAACACAGUGUAGCAAAGUGGCUGUGGCUAGACUGCC [C18U G21A] | 2.7
33 | GGAAGAGCUCACCACAGCGUGGCAAAGUGGCUGUGGCUAGACUGCC [C3A A12C] | 0.07
34 | GGCAUAGCUCAACACAGCGUUGCAAAGUGGCUGUGGCUAGACUGCC [G5U G21U] | 0.1
35 | GGCAGAGCUCAACACAGCGUGGCAAAGUAGCUGUGGCUAGACUCCC [G29A G44C] | 0.34
36 | GGCAGAGCUCAACACAGCGUGGCAGAGUGGCUGUGGCUCGACUGCC [A25G A39C] | 0.22
37 | UGCAGAGCUCAACACAGCGUGUCAAAGUGGCUGUGGCUAGACUGCC [G1U G22U] | 0.43
38 | GGCAGAGCUCCACACAGCGGGGCAAAGUGGCUGUGGCUAGACUGCC [A11C U20G] | 0.04

Row | Variant | self-cleavage
39 | GGCACAGCUCAACACAGCGUGGCAAAGCGGCUGUGGCUAGACUGCC [G5C U28C] | 0.05
40 | GUCAGAGCUCAACACAGCGUGGCAAAGUGGCUGUGUCUAGACUGCC [G2U G36U] | 0.04
41 | GGCAGAGCUCAACACAGCGUGGAAAAGUGGCUGUGGCUAGACUGUC [C23A C45U] | 1.97
42 | GGCAGAGCUCAACACGGCGUGGCAAAGUGGCUGUGGCUAGAAUGCC [A16G C42A] | 0.07
43 | GACAGAGCUCAACACAGCGUGGCAACGUGGCUGUGGCUAGACUGCC [G2A A26C] | 0.9
44 | GGCAGAGCUCAACACAGCGUAGCAAAGUGUCUGUGGCUAGACUGCC [G21A G30U] | 2.01
45 | GGCAGAGCUCAACACAGCGUGGCCAAGUGGCUGUGGCUAUACUGCC [A24C G40U] | 0.11
46 | GGCAGAGCUCAACACAGCAUGGCAAAGUAGCUGUGGCUAGACUGCC [G19A G29A] | 1.14
47 | GGCAGAGCUCAACACAGCGUGGCAAAGUGGCUGUGGCUACACCGCC [G40C U43C] | 0.07
48 | GGCAGAGCUCAACACAGCGUGGUAAAGUGGCUGUGGCCAGACUGCC [C23U U38C] | 0.93
49 | GGCAGAGCUCAACACAGCAUGGCAAAGUGGCUGUGGCUAGACUGCC [G19A] | 1.5
50 | GGCAGAGCUCAACACAGCGUGGCCAAGUGGCUGUGGCAAGACUGCC [A24C U38A] | 0.3
51 | GGCAGAGCUAAACACAGAGUGGCAAAGUGGCUGUGGCUAGACUGCC [C10A C18A] | 0.07
52 | GGCACAGCUCAACACAGCGUGGCAAAGUGGCGGUGGCUAGACUGCC [G5C U32G] | 0.07
53 | GGCAGAGCUCAACACAGCGUGGAAAAGUGACUGUGGCUAGACUGCC [C23A G30A] | 1.34
54 | AGCAGAGCUCAACACAGCGUGGCAAAGUGACUGUGGCUAGACUGCC [G1A G30A] | 0.85
55 | GGCAGAGCUCAACACAGCGUGGCAAAGUGGCUGUGGCUAGACUGGU [C45G C46U] | 0.66
56 | GGCAGAGCCCAACACAGCGUGGCAAAGUGGCUGUGGCUAGACCGCC [U9C U43C] | 0.02
